Data taken from publication PMC2859679 (Journal of molecular biology, 2009).

Target: the molecule itself
Assay: crystal structure

B1: MhuD (mycobacterial heme utilization, degrader), Rv3592, from Mycobacterium tuberculosis (enzyme)
chain: MPVVKINAIEVPAGAGPELEKRFAHRAHAVENSPGFLGFQLLRPVKGEERYFVVTHWESDEAFQAWANGPAIAAHAGHRANPVATGASLLEFEVVLDVGGTGKTA
binding result: binds
